# Results published in paper PMC11233879, “JrPHL8-JrWRKY4-JrSTH2L module regulates resistance to Colletotrichum gloeosporioides in walnut”.
# T1: JrPHL8 (walnut (Juglans)?, UniProt A0A2I4DJV4 1-356)
# T1 sequence: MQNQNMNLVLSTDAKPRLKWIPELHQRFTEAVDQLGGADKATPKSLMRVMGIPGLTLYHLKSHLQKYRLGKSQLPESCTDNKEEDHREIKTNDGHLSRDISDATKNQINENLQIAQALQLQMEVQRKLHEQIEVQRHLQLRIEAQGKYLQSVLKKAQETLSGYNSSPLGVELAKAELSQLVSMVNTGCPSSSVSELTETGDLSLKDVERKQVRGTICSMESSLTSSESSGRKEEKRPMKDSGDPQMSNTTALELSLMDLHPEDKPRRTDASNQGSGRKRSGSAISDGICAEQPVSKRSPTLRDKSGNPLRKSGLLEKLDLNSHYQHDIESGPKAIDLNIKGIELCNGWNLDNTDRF
# B1: proJrSTH2L-Wbox (dsDNA)
# DNA 1: AACCTAAACCCTTTGTGAAGTTGACCAGATCCTCAACCCGGGATGG
# DNA 2: CCATCCCGGGTTGAGGATCTGGTCAACTTCACAAAGGGTTTAGGTT
# B2: proJrWRKY4-MBS (dsDNA)
# DNA 1: TTCACTATTACTGATATTCTCAACAGAAAAATGTCTAAGAGACAAT
# DNA 2: ATTGTCTCTTAGACATTTTTCTGTTGAGAATATCAGTAATAGTGAA
# Experiments:
# JrWRKY4 = JrWRKY4 (walnut (Juglans)?, UniProt A0A2I4E3K4 1-517); assay: EMSA; LightShift Chemiluminescent EMSA Kit (Beyotime); cold probe 100-fold; buffer, salt, pH and temperature not stated; conditions: protein: recombinant; tags: pET32a fusion (Trx-His; article states His-tagged); label: biotin; blunt
# JrPHL8 = target: T1, JrPHL8; assay: as above; conditions: protein: recombinant; tags: His (pET32a fusion); chain copies: 2; label: biotin; blunt
# Sequence of JrWRKY4 (A0A2I4E3K4 entry or part of it): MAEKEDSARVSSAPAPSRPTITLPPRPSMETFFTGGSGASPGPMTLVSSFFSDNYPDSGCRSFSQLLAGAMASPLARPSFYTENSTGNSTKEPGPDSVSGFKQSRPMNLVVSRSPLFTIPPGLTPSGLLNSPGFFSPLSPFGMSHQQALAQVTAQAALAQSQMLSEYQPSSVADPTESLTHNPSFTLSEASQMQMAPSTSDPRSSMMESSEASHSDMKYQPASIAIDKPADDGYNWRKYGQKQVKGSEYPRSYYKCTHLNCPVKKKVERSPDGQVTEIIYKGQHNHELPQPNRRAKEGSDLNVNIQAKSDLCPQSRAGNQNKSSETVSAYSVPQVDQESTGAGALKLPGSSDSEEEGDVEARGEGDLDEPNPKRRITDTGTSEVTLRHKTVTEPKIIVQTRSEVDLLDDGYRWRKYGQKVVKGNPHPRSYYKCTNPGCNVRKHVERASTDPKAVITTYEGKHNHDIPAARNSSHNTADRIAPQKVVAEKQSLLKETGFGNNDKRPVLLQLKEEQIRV
Binder,binding result (JrWRKY4),binding result (JrPHL8)
B1,binds,
B2,,binds
